Test results from patent US20260250381A1.

T1: human TREM2 (human) (UniProt Q9NZC2)
T1 sequence (looked up): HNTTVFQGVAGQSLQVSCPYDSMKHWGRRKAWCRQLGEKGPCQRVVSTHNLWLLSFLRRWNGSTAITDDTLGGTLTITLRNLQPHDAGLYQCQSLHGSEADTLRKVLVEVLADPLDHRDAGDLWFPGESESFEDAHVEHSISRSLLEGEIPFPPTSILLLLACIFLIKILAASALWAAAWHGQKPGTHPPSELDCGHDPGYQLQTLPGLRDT

B1: 6E7 variant V75 (antibody, V domains shown)
VH: EVQLVQSGAEVKKPGESLKISCKGSGYSFTSYWIAWVRQMPGKGLEWMGIIYPGDSDTRYSPSFQGQVTISADKSISTAYLQWSSLKASDTAMYFCARGRTFYYDSSDYFDYWGQGTLVTVSS
VL: DIQMTQSPSSVSASVGDRVTITCRASQGISSWLAWYQQKPGKAPKLLIYAASSLQAGVPSRFSGSGSGTDFTLTISSLQPEDFATYFCQQADSYPRTFGQGTKLEIK
B2: 6E7 variant V4 (antibody, V domains shown)
VH: EVQLVQSGAEVKKPGESLKISCKGSGYSFGSYWIAWVRQMPGKGLEWMGIIYPGDSDTRVSPSFQGQVTISADKSISTAYLQWSSLKASDTAMYFCARSRTFYYDSSDYFDYWGQGTLVTVSS
VL: DIQMTQSPSSVSASVGDRVTITCRASQGISSWLAWYQQKPGKAPKLLIYAASRLQNGVPSRFSGSGSGTDFTLTISSLQPEDFATYFCQQADSYPRTFGQGTKLEIK
B3: 6E7 variant V17 (antibody, V domains shown)
VH: EVQLVQSGAEVKKPGESLKISCKGSGYSFGSYWIAWVRQMPGKGLEWMGIIYPGDSDTRYSPSFQGQVTISADKSISTAYLQWSSLKASDTAMYFCARSRTFYYDSSDYFDYWGQGTLVTVSS
VL: DIQMTQSPSSVSASVGDRVTITCRASQGISSWLAWYQQKPGKAPKLLIYAASSRQNGVPSRFSGSGSGTDFTLTISSLQPEDFATYFCQQADSSPRTFGQGTKLEIK
B4: 6E7 variant V15 (antibody, V domains shown)
VH: EVQLVQSGAEVKKPGESLKISCKGSGYSFASYWIAWVRQMPGKGLEWMGTIYPGDSDTRYSPSFQGQVTISADKSISTAYLQWSSLKASDTAMYFCARSRTFYYDSSDYFDYWGQGTLVTVSS
VL: DIQMTQSPSSVSASVGDRVTITCRASQGISSWLAWYQQKPGKAPKLLIYAASWLQNGVPSRFSGSGSGTDFTLTISSLQPEDFATYFCQQADSYPRTFGQGTKLEIK
B5: 6E7 variant V89 (antibody, V domains shown)
VH: EVQLVQSGAEVKKPGESLKISCKGSGYSFTSYWIAWVRQMPGKGLEWMGIIYPGDSDTRYSPSFQGQVTISADKSISTAYLQWSSLKASDTAMYFCARQRTFYYDSSDYFDYWGQGTLVTVSS
VL: DIQMTQSPSSVSASVGDRVTITCRASQGISSWLAWYQQKPGKAPKLLIYAASSLQNGVPSRFSGSGSGTDFTLTISSLQPEDFATYFCQQADSHPRTFGQGTKLEIK
B6: 6E7 variant V13 (antibody, V domains shown)
VH: EVQLVQSGAEVKKPGESLKISCKGSGYSFGSYWIAWVRQMPGKGLEWMGIIYPGDSDTRYSASFQGQVTISADKSISTAYLQWSSLKASDTAMYFCARGRTFYYDSSDYFDYWGQGTLVTVSS
VL: DIQMTQSPSSVSASVGDRVTITCRASQGISSWLAWYQQKPGKAPKLLIYAASSLQGGVPSRFSGSGSGTDFTLTISSLQPEDFATYFCQQADSMPRTFGQGTKLEIK
B7: 6E7 variant V5 (antibody, V domains shown)
VH: EVQLVQSGAEVKKPGESLKISCKGSGYSFTSYWIAWVRQMPGKGLEWMGTIYPGDSDTRYSPSFQGQVTISADKSISTAYLQWSSLKASDTAMYFCARQRTFYYDSSDYFDYWGQGTLVTVSS
VL: DIQMTQSPSSVSASVGDRVTITCRASQGISSWLAWYQQKPGKAPKLLIYAASSLQNGVPSRFSGSGSGTDFTLTISSLQPEDFATYFCQQADSHPRTFGQGTKLEIK
B8: 6E7 variant V84 (antibody, V domains shown)
VH: EVQLVQSGAEVKKPGESLKISCKGSGYGFTSYWIAWVRQMPGKGLEWMGIIYPGDSDTRYSPSFQGQVTISADKSISTAYLQWSSLKASDTAMYFCARQRTFYYDSSDYSDYWGQGTLVTVSS
VL: DIQMTQSPSSVSASVGDRVTITCRASQGISSWLAWYQQKPGKAPKLLIYGASSLQNGVPSRFSGSGSGTDFTLTISSLQPEDFATYFCQQADSFPRTFGQGTKLEIK
B9: 6E7 variant V14 (antibody, V domains shown)
VH: EVQLVQSGAEVKKPGESLKISCKGSGYSFGSYWIAWVRQMPGKGLEWMGIIYPGDQDTRYSPSFQGQVTISADKSISTAYLQWSSLKASDTAMYFCARGRTFYYDSSDYFDYWGQGTLVTVSS
VL: DIQMTQSPSSVSASVGDRVTITCRASQGISSWLAWYQQKPGKAPKLLIYAASRLQNGVPSRFSGSGSGTDFTLTISSLQPEDFATYFCQQADSFPRTFGQGTKLEIK
B10: 6E7 variant V86 (antibody, V domains shown)
VH: EVQLVQSGAEVKKPGESLKISCKGSGYSFGSYWLAWVRQMPGKGLEWMGIIYPGDSDTRYSPSFEGQVTISADKSISTAYLQWSSLKASDTAMYFCARSRTFYYDSSDYFDYWGQGTLVTVSS
VL: DIQMTQSPSSVSASVGDRVTITCRASQGISSWLAWYQQKPGKAPKLLIYAASSRQNGVPSRFSGSGSGTDFTLTISSLQPEDFATYFCQQADSFPRTFGQGTKLEIK
B11: 6E7 variant V76 (antibody, V domains shown)
VH: EVQLVQSGAEVKKPGESLKISCKGSGYSFGSYWIAWVRQMPGKGLEWMGIIYPGDSDTRYSPEFQGQVTISADKSISTAYLQWSSLKASDTAMYFCARQRTFYYDSSDYSDYWGQGTLVTVSS
VL: DIQMTQSPSSVSASVGDRVTITCRASQGISSWLAWYQQKPGKAPKLLIYAASSLQKGVPSRFSGSGSGRDFTLTISSLQPEDFATYFCQQADSFPRTFGQGTKLEIK
B12: 6E7 variant V88 (antibody, V domains shown)
VH: EVQLVQSGAEVKKPGESLKISCKGSGYSFGSYWIAWVRQMPGKGLEWMGIIYPGDSDTRYSPSFQGQVTISADKSISTAYLQWSSLKASDTAMYFCARQRTFYYDSSDYFDYWGQGTLVTVSS
VL: DIQMTQSPSSVSASVGDRVTITCRASQGISSWLAWYQQKPGKAPKLLIYAASRLQRGVPSRFSGSGSGTDFTLTISSLQPEDFATYFCQQADSSPRTFGQGTKLEIK
B13: 6E7 variant V3 (antibody, V domains shown)
VH: EVQLVQSGAEVKKPGESLKISCKGSGYSFASYWIAWVRQMPGKGLEWMGIIYPGDSDTRYSPSFQDQVTISADKSISTAYLQWSSLKASDTAMYFCARGRTFYYDSSDYFDYWGQGTLVTVSS
VL: DIQMTQSPSSVSASVGDRVTITCRASQGISSWLAWYQQKPGKAPKLLIYAASSRQNGVPSRFSGSGSGTDFTLTISSLQPEDFATYFCQQADRFPRTFGQGTKLEIK
B14: 6E7 variant V87 (antibody, V domains shown)
VH: EVQLVQSGAEVKKPGESLKISCKGSGYSFRSYWIAWVRQMPGKGLEWMGIIYPGDSDVRYSPDFQGQVTISADKSISTAYLQWSSLKASDTAMYFCARSRTFYYDSSDYFDYWGQGTLVTVSS
VL: DIQMTQSPSSVSASVGDRVTITCRASQGISSWLAWYQQKPGKAPKLLIYAASSLQWGVPSRFSGSGSGTDFTLTISSLQPEDFATYFCQQADSFPRTFGQGTKLEIK
B15: 6E7 variant V85 (antibody, V domains shown)
VH: EVQLVQSGAEVKKPGESLKISCKGSGYSFRSYWIAWVRQMPGKGLEWMGTIYPGDSDTRYSPSFQGQVTISADKSISTAYLQWSSLKASDTAMYFCARSRTFYYDSSDYFDYWGQGTLVTVSS
VL: DIQMTQSPSSVSASVGDRVTITCRASQGISSWLAWYQQKPGKAPKLLIYAASSRQNGVPSRFSGSGSGTDFTLTISSLQPEDFATYFCQQADSFPRTFGQGTKLEIK
B16: 6E7 variant V77 (antibody, V domains shown)
VH: EVQLVQSGAEVKKPGESLKISCKGSGYSFTSYWIAWVRQMPGKGLEWMGIIYPGDSDTRYSPSFQGQVTISADKSISTAYLQWSSLKASDTAMYFCARQRTFYYDSSDYFDYWGQGTLVTVSS
VL: DIQMTQSPSSVSASVGDRVTITCRASQGISSWLAWYQQKPGKAPKLLIYAASSRQNGVPSRFSGSGSGTDFTLTISSLQPEDFATYFCQQADSFPRTFGQGTKLEIK
B17: 6E7 variant V16 (antibody, V domains shown)
VH: EVQLVQSGAEVKKPGESLKISCKGSGYSMTSYWIAWVRQMPGKGLEWMGIIYPGDGDTRYSPSFQGQVTISADKSISTAYLQWSSLKASDTAMYFCARSRTFYYDSSDYFDYWGQGTLVTVSS
VL: DIQMTQSPSSVSASVGDRVTITCRASQGISSWLAWYQQKPGKAPKLLIYAASNLQNGVPSRFSGSGSGTDFTLTISSLQPEDFATYFCQQADSFPRTFGQGTKLEIK

Legend:
human TREM2 (human) [1] = biological target: T1, human TREM2 (human); assay: 2nd screen, 2 nM Ab
human TREM2 (human) [2] = biological target: T1, human TREM2 (human); assay: 1st screen, 10 nM Ab
human TREM2 (human) [3] = biological target: T1, human TREM2 (human); assay: 2nd screen, 10 nM Ab

Binder | Binding Signal (fold over 6E7 parental antibody) (human TREM2 (human) [1]) | Binding Signal (fold over 6E7 parental antibody) (human TREM2 (human) [2]) | Binding Signal (fold over 6E7 parental antibody) (human TREM2 (human) [3])
B1 | 3.74 fold | 4.64 fold | 4.52 fold
B2 | 5.88 fold | 6 fold | 5.51 fold
B3 | 4.22 fold | 5.37 fold | 5.51 fold
B4 | 4.72 fold | 5.23 fold | 4.78 fold
B5 | 0.94 fold | 1.33 fold | 1.46 fold
B6 | 1.15 fold | 1.31 fold | 1.35 fold
B7 | 1.25 fold | 2.73 fold | 2.84 fold
B8 | 1.45 fold | 1.44 fold | 1.62 fold
B9 | 2.57 fold | 4.71 fold | 4.64 fold
B10 | 5.17 fold | 4.8 fold | 5.02 fold
B11 | 4.34 fold | 4.57 fold | 4.93 fold
B12 | 5.57 fold | 4.92 fold | 5.3 fold
B13 | 1.95 fold | 1.97 fold | 2.24 fold
B14 | 4.86 fold | 3.84 fold | 3.93 fold
B15 | 5.41 fold | 5.41 fold | 5.37 fold
B16 | 0.83 fold | 1.43 fold | 1.38 fold
B17 | 3.57 fold | 4.01 fold | 4.04 fold
